Experimental data as given in patent publication US20250312444A1 (BEIJING TUO JIE BIOPHARMACEUTICAL, published 2025).
Read-outs that look alike come from different tables or passages of the source.

Columns and labels:
Assay in all cases: SPR Biacore T200, antibody captured by anti-His, albumin as analyte
[1] = biological target: mouse serum albumin (mSA) (mouse)
Experimental: (§1) The affinity constants of the 6His-tagged humanized anti-HSA antibodies for human, monkey and mouse albumins were determined using a Biacore T200 (GE Healthcare) instrument. Firstly, amino coupling was performed on a CM5 S series chip (GE, Cat. 29-1049-88) by using an amino coupling kit (GE, Cat. BR-1000-50) and a His capture kit (GE, Cat. 28-9950-56) according to the kit manuals. The surface response value reached about 10000 RU. The chip was then blocked with ethanolamine for later use. The 6His-tagged humanized anti-HSA antibodies were each captured onto the anti-his chip through affinity. Then, different concentrations of human, monkey and mouse albumins were flowed over the surface of the chip, and the reaction signals were detected in real-time using the Biacore instrument to obtain the association and dissociation curves. Finally, fitting was performed with a Langmuir 1:1 binding model using BIAevaluation version 4.1, GE software to obtain the affinity constants. The buffer used in the experiment was an HBS-EP solution (10 mM HEPES, 150 mM NaCl, 3 mM EDTA, 0.05% P20, pH 7.4, GE, Cat. #BR-1006-69). After the end of each cycle, the chip was regenerated using glycine-hydrochloric acid (pH 1.5) (GE, Cat. #BR-1003-54).

[2] = biological target: human serum albumin (HSA) (human)
Experimental: as §1

[3] = biological target: T1, monkey serum albumin (CySA) (monkey)
T1 chain: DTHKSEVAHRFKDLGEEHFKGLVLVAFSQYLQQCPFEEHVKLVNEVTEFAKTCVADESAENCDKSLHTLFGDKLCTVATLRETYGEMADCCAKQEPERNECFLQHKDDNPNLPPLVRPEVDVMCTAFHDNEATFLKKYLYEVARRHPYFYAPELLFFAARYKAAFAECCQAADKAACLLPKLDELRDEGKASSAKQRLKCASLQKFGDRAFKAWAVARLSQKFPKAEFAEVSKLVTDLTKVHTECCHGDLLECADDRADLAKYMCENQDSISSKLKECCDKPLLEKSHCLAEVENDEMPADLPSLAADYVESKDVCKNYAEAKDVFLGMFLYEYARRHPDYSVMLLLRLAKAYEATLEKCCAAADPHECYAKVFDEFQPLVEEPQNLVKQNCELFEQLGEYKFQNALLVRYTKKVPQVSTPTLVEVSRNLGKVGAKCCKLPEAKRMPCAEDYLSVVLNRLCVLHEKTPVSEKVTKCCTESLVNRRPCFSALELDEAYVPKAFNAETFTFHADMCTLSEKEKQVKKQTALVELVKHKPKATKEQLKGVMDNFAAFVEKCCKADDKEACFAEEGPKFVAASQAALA
Experimental: as §1

[4] = biological target: mouse serum albumin (mSA) (mouse); remark: listed apart in the source
Experimental: (§2) The anti-HSA antibody 7_Hu_10-6his was transiently expressed in HEK293E cells. After affinity purification with a nickel column, the affinity constants of the antibody for human, monkey, mouse, rat, dog and rabbit albumins were determined using a Biacore T200 (GE Healthcare) instrument. Firstly, amino coupling was performed on a CM5 S series chip (GE, Cat. 29-1049-88) by using an amino coupling kit (GE, Cat. BR-1000-50) and a His capture kit (GE, Cat. 28-9950-56) according to the kit manuals. The surface response value reached about 10000 RU. The chip was then blocked with ethanolamine for later use. The 6His-tagged humanized anti-HSA antibodies were each captured onto the anti-his chip through affinity. Then, different concentrations of human, monkey, mouse, rat, dog and rabbit albumins were flowed over the surface of the chip, and the reaction signals were detected in real-time using the Biacore instrument to obtain the association and dissociation curves. Finally, fitting was performed with a Langmuir 1:1 binding model using BIAevaluation version 4.1, GE software to obtain the affinity constants. The buffer used in the experiment was an HBS-EP solution (10 mM HEPES, 150 mM NaCl, 3 mM EDTA, 0.05% P20, pH 7.4, GE, Cat. #BR-1006-69). 20 After the end of each cycle, the chip was regenerated using glycine-hydrochloric acid (pH 1.5) (GE, Cat. #BR-1003-54).

[5] = biological target: T2, rat serum albumin (rat)
T2 chain: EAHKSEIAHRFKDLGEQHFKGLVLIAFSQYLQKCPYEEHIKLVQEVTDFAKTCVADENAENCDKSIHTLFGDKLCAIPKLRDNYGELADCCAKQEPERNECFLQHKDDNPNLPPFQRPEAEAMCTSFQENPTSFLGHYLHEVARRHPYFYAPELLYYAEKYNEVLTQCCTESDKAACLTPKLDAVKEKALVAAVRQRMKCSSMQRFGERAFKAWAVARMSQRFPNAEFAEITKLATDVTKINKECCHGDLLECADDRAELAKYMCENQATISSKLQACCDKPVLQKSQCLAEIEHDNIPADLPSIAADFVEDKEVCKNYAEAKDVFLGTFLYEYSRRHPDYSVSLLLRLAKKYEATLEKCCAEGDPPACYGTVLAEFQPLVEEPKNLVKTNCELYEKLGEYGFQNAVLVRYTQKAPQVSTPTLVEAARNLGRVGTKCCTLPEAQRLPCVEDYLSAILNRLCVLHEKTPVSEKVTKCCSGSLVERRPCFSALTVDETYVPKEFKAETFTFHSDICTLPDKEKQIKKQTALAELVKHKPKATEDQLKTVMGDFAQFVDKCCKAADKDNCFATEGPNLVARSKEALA
Experimental: as §2

[6] = biological target: T3, dog serum albumin (dog, UniProt P49822 25-608)
T3 construct: also called Dog SA; dog albumin
Experimental: as §2

[7] = biological target: human serum albumin (HSA) (human); remark: listed apart in the source
Experimental: as §2

[8] = biological target: T1, monkey serum albumin (CySA)
Experimental: as §2

[9] = biological target: T4, rabbit serum albumin (rabbit, UniProt P49065 25-608)
T4 construct: also called Rabbit SA; rabbit albumin
Experimental: as §2

B1: #7_Hu_10-6His (VHH)
VHH: EVQLLESGGGLVQPGGSLRLSCAASGFTFLTSCMGWFRQAPGKEREGVSSIYTVGGSTFYTNSVKGRFTISRDNSKNTLYLQMNSLRAEDTAVYYCAAGSPARCRLRDPTTFDYWGQGTLVTVSS
**Q.** With B1 as the binder, how does the Kd [1] read?
**A.** 0.328 µM

**Q.** What about the koff [1] of the same binder?
**A.** 0.0196 s⁻¹

**Q.** And the kon [1]?
**A.** 59700 M⁻¹ s⁻¹

**Q.** And the Kd [2]?
**A.** 0.0115 µM

**Q.** What about the koff [2] of the same binder?
**A.** 0.000347 s⁻¹

**Q.** And the kon [2]?
**A.** 30100 M⁻¹ s⁻¹

**Q.** And the Kd [3]?
**A.** 0.031 µM

**Q.** And the koff [3]?
**A.** 0.000545 s⁻¹

**Q.** And the kon [3]?
**A.** 17600 M⁻¹ s⁻¹

**Q.** And the Kd [4]?
**A.** 0.653 µM

**Q.** What about the koff [4] of the same binder?
**A.** 0.0254 s⁻¹

**Q.** What about the kon [4] of the same binder?
**A.** 38900 M⁻¹ s⁻¹

**Q.** What about the Kd [5] of the same binder?
**A.** 0.158 µM

**Q.** What about the koff [5] of the same binder?
**A.** 0.00461 s⁻¹

**Q.** What about the kon [5] of the same binder?
**A.** 29200 M⁻¹ s⁻¹

**Q.** What about the Kd [6] of the same binder?
**A.** 0.342 µM

**Q.** And the koff [6]?
**A.** 0.0211 s⁻¹

**Q.** And the kon [6]?
**A.** 61700 M⁻¹ s⁻¹

**Q.** And the Kd [7]?
**A.** 0.0106 µM

**Q.** And the koff [7]?
**A.** 0.000683 s⁻¹

**Q.** And the kon [7]?
**A.** 64700 M⁻¹ s⁻¹

**Q.** What about the Kd [8] of the same binder?
**A.** 0.0145 µM

**Q.** What about the koff [8] of the same binder?
**A.** 0.000697 s⁻¹

**Q.** And the kon [8]?
**A.** 47900 M⁻¹ s⁻¹

**Q.** Does B1 bind [9]?
**A.** no binding
